Experimental data published in patent US20170166934A1.

Assays:
[1] = tested on: T1, wild type Penicillium oxalicum glucoamylase
T1 sequence: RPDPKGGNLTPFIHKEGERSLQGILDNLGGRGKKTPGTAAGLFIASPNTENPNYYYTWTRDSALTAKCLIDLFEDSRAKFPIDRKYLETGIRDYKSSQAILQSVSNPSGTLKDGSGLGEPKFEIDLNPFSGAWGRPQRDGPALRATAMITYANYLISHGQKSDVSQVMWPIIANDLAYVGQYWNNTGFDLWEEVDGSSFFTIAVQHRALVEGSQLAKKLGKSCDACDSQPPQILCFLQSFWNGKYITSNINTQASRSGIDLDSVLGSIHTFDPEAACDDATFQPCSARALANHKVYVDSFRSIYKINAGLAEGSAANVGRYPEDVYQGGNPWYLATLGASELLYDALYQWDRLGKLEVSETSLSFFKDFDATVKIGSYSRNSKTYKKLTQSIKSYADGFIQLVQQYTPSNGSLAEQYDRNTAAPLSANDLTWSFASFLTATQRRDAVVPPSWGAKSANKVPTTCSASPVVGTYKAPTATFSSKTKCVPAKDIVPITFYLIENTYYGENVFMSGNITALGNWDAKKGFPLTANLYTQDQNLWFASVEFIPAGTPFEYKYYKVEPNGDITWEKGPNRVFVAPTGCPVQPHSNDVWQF

[2] = molecular target: Penicillium oxalicum glucoamylase variant PE001 (SEQ ID NO: 14 + K79V substitution) (Penicillium oxalicum); assay: cell-based or functional assay
[3] = molecular target: wild type Penicillium oxalicum glucoamylase (Penicillium oxalicum); assay: cell-based or functional assay

Row | intact glucoamylase (ca. 70 kDa) on SDS-PAGE after overnight protease treatment at 4 °C [2] | intact glucoamylase (ca. 70 kDa) on SDS-PAGE after overnight protease treatment at 32 °C [2] | intact glucoamylase (ca. 70 kDa) on SDS-PAGE after overnight protease treatment at 4 °C [3] | intact glucoamylase (ca. 70 kDa) on SDS-PAGE after overnight protease treatment at 32 °C [3] | Substance | cleaved glucoamylase (ca. 60 kDa) on SDS-PAGE after overnight protease treatment at 32 °C [1] | cleaved glucoamylase (ca. 60 kDa) on SDS-PAGE after overnight protease treatment at 4 °C [1]
1 |  |  |  |  | aspergillopepsin I | 10% | 
2 |  |  |  |  | aorsin | 90% | 60%
3 | 100% | 100% | 100% | 90% | aspergillopepsin I (enzyme) |  | 
4 | 100% | 100% | 40% | 10% | aorsin (enzyme) |  | 
